To fix the notation:
B1: Neuronal cell adhesion molecule (Mus musculus), Q810U4 (parent)
chain: MQLKIMPKKKHLSAGGVPLILFLCQMISALDVPLDLVQPPTITQQSPKDYIIDPRENIVIQCEAKGKPPPSFSWTRNGTHFDIDKDPLVTMKPGSGTLVINIMSEGKAETYEGVYQCTARNERGAAVSNNIVVRPSRSPLWTKERLEPIVLQNGQSLVLPCRPPIGLPPAIIFWMDNSFQRLPQSERVSQGLNGDLYFSNVLPEDTREDYICYARFNHTQTIQQKQPISLKVISVDELNDTIAANLSDTEFYGAKSSKERPPTFLTPEGNESHKEELRGNVLSLECIAEGLPTPIIYWIKEDGMLPANRTFYRNFKKTLQITHVSEADSGNYQCIAKNALGAVHHTISVTVKAAPYWIVAPQNLVLSPGENGTLICRANGNPKPRISWLTNGVPIEIALDDPSRKIDGDTIIFSNVQESSSAVYQCNASNKYGYLLANAFVNVLAEPPRILTSANTLYQVIANRPALLDCAFFGSPMPTIEWFKGTKGSALHEDIYVLHDNGTLEIPVAQKDSTGTYTCVARNKLGMAKNEVHLEIKDPTRIIKQPEYAVVQRGSKVSFECRVKHDHTLIPTIMWLKDNGELPNDERFSTDKDHLVVSDVKDDDGGTYTCTANTTLDSASASAVLRVVAPTPTPAPIYDVPNPPFDLELTNQLDKSVQLTWTPGDDNNSPITKFIIEYEDAMHDAGLWRHQAEVSGTQTTAQLKLSPYVNYSFRVMAENSIGRSMPSEASEQYLTKAAEPDQNPMAVEGLGTEPDNLVITWKPLNGFQSNGPGLQYKVSWRQKDGDDEWTSVVVANVSKYIVSGTPTFVPYLIKVQALNDVGFAPEPAAVMGHSGEDLPMVAPGNVRVSVVNSTLAEVHWDPVPPKSVRGHLQGYRIYYWKTQSSSKRNRRHIEKKILTFQGTKTHGMLPGLQPYSHYALNVRVVNGKGEGPASTDRGFHTPEGVPSAPSSLKIVNPTLDSLTLEWDPPSHPNGILTEYILQYQPINSTHELGPLVDLKIPANKTRWTLKNLNFSTRYKFYFYAQTSVGPGSQITEEAITTVDEAGIPPPDVGAGKGKEEWRKEIVNGSRSFFGLKGLMPGTAYKVRVGAEGDSGFVSSEDVFETGPAMASRQVDIATQGWFIGLMCAVALLILILLIVCFIRRNKGGKYPVKEKEDAHADPEIQPMKEDDGTFGEYSDAEDHKPLKKGSRTPSDRTVKKEDSDDSLVDYGEGVNGQFNEDGSFIGQYSGKKEKEPAEGNESSEAPSPVNAMNSFV

We go through one variant from IntAct's records for PubMed 16882004.

Variants of B1 are the subject of this assay. The settings on record: with dlg1_mouse Dlg1, Q811D0.
dlg1_mouse Dlg1, Q811D0, sequence (Q811D0 whole entry): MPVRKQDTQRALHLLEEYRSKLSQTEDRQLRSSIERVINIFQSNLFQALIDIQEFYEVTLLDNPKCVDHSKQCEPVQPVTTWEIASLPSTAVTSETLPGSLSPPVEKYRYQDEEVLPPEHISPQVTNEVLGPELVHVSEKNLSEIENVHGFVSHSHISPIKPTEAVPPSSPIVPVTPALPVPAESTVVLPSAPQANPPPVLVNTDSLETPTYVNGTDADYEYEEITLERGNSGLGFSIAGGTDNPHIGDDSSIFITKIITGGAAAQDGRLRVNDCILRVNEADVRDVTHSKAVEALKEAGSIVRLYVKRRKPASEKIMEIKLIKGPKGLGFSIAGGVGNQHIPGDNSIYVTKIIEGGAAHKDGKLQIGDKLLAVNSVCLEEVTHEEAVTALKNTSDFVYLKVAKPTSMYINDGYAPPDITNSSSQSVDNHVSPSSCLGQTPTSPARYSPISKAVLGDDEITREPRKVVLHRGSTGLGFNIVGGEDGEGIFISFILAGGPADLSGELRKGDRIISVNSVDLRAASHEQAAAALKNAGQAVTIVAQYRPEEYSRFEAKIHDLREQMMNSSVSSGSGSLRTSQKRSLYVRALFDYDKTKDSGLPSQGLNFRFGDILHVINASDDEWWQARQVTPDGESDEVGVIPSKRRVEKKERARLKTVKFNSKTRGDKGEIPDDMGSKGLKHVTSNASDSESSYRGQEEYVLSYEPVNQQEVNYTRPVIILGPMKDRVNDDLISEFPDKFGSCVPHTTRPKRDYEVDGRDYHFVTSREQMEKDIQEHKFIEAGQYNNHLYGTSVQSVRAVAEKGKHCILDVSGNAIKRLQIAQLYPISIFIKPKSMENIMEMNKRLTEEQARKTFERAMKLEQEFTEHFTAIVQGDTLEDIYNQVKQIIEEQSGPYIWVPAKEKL
In the case of V1256A, the “effect of a mutation on the interaction” value is “disrupting interaction”.
